“Also recorded” adds a separate entry of the source.
Columns and labels:
[1] = target: T1, heparanase (latent 65 kDa or GS3 constitutively active) (Homo sapiens, UniProt Q9Y251); assay: Cellular uptake and processing of heparanase in HEK 293 cells (immunoblot); format: cell-based; conditions: mAb 10 μg/ml
T1 construct: host or cells: added exogenously to HEK 293 cells
T1 sequence (Q9Y251 36-543): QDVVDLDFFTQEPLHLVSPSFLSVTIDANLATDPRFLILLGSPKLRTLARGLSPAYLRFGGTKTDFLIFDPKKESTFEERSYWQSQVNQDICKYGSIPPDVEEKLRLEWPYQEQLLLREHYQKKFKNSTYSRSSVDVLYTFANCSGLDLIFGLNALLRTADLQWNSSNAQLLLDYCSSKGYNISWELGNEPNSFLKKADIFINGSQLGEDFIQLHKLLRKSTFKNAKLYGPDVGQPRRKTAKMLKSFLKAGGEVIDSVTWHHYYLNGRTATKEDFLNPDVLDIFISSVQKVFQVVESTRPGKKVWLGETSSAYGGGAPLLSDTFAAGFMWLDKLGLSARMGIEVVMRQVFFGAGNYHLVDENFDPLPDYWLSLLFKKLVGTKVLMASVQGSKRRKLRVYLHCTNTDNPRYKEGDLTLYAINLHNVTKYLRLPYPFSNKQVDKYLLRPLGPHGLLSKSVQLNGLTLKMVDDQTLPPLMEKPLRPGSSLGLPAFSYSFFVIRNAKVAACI
Excerpt: (§1) Development of heparanase-neutralizing monoclonal antibodies: In order to target heparanase activity even more specifically, a panel of monoclonal antibodies (mAb) directed against the KKDC peptide (Lys158-Asn171) which comprises the substrate (HS)-binding domain of heparanase (Levy-Adam F, et al. 2005, J Biol Chem 280(21):20457-20466) were developed. In order to validate that the resulting antibodies target the heparin/HS binding domain, cellular uptake of latent 65 kDa heparanase in the absence or presence of the various newly generated mAbs was tested. This system appeared most relevant because previous studies have shown that heparanase uptake is HS-dependent (Gingis-Velitski S, et al. 2004. J Biol Chem 279(42):44084-44092). […] Moreover, liver metastasis of ESb cells was inhibited 4-5 fold by mAb 9E8 (FIG. 3C). The availability of highly specific heparanase-neutralizing mAbs led to the conclusion that heparanase enzymatic activity is required for cell invasion and tumor metastasis.
(§2) FIG. 3A. HEK 293 cells were incubated with latent 65 kDa (upper panel) or GS3 constitutively active heparanase (1 μg/ml; third panel) and the indicated mAbs (10 μg/ml). […] The mixture was then applied onto ^35S-labeled ECM-coated dishes and heparanase activity was determined as described above (lower panel). […] Quantification of the extent of CD45 staining is shown graphically in the lower panel. […]

[2] = tested on: heparanase (latent 65 kDa or GS3 constitutively active); assay: as above; format: cell-based; conditions: GS3 1 μg/ml, mAb 10 μg/ml
Excerpt: as §1, §2

[3] = tested on: ESb mouse T-lymphoma cells; assay: ESb T-lymphoma spontaneous liver metastasis and survival; format: in vivo; conditions: ESb, mAb 500 μg/mouse every other day, 3 weeks
Procedure: Lymphoma cells were also inoculated subcutaneously at the right flank of 6-weeks-old NOD/SCID mice (human cell lines) or C57BL/6 mice (E1-4 mouse lymphoma cells) (n=7). Mice were treated with heparanase inhibitors (PG545; SST0001) or neutralizing antibodies and xenografts size was determined by externally measuring the tumors in 2 dimensions using a caliper. At the end of the experiment, mice were sacrificed; tumor xenografts were removed, weighed and fixed for histological and immunohistochemical analyses (Weissmann et al, 2016, Proc Natl Acad Sci USA 113:704-709). ESb mouse T-lymphoma cells (5×10^5) were similarly inoculated subcutaneously into SCID mice and spontaneous metastasis to the liver (Vlodaysky et al., 1983, Cancer Res 43:2704-2711) was examined after 3 weeks of treatment with PG545 or the neutralizing mAb, as described above. All animal experiments were approved by the Animal Care Committee of the Technion, Haifa, Israel.
FIG. 3A. HEK 293 cells were incubated with latent 65 kDa (upper panel) or GS3 constitutively active heparanase (1 μg/ml; third panel) and the indicated mAbs (10 μg/ml). The cell medium was aspirated at the time designated and cell lysates were subjected to immunoblotting applying anti-heparanase antibody (upper and third panels). […] Heparanase-transfected 293 cells were grown with control mouse IgM or mAb 9E8 for two days. Cells were then fixed with methanol and subjected to immunofluorescent staining applying anti heparanase antibody (second panel) or lysed and subjected to immunoblotting applying anti-heparanase antibody (fourth panel). Purified recombinant active heparanase (200 ng) was pre-incubated with control mouse IgM ( ? ), mAb 8A5 ( ? ), mAb 9E8 ( ? ), all at 2 μg/ml, for 2 h in serum-free RPMI medium on ice. The mixture was then applied onto ^35S-labeled ECM-coated dishes and heparanase activity was determined as described above (lower panel). FIG. 3B, C. […] Quantification of the extent of CD45 staining is shown graphically in the lower panel. […]

[4] = tested on: lymphoma cells; assay: Lymphoma cell death, propidium iodide FACS; format: cell-based; conditions: 50 μg/ml, 24 h
Procedure: FIG. 6A. CAG myeloma. NOD/SCID mice (n=5) were inoculated (iv) with CAG-luciferase cells (5×10^6) and mice were treated with mAb 9E8 (600 μg/mouse every other day). Tumor growth was evaluated by IVIS imaging (left panels). Quantification of luciferase signals is shown graphically in the right panel. Note 2-3 fold decrease in tumor growth by the heparanase-neutralizing mAbs. FIG. 6B. Bone marrow was harvested from C57Bl/6 mice, cells were collected by centrifugation and heparanase activity was determined as described under ‘Materials and Methods’ (left panel). Corresponding bones were fixed in formalin and following de-calcification were subjected to immunostaining applying anti-heparanase antibody (right panel). FIG. 6C. The indicated cell line (0.25×10^6) was treated with antibodies 1453or 9E8 (50 μg/ml) for 24 h. Cells were then washed once with FACS buffer (PBS containing 2% FCS), incubated with Propidium Iodide (PI; 1 μg/ml) for 10 min and analyzed using FACS Cyan ADP system (Beckman Coulter, Inc). PI-positivity indicates a disturbed membrane and cell death.

B1: mAb 9E8: monoclonal IgM raised against KKDC peptide (Lys158-Asn171) of heparanase; VH SEQ ID NO: 7, VL SEQ ID NO: 8 (antibody)
VH: EVKLLESGGGLVQPGGSLKLSCAASGFDFSRYWMSWVRQAPGKGLEWIGEINPDSSTINYTPSLKDKFIISRDNAKNTLYLQMSKVRSEDTALYYCARRGYEGNYAMDYWGQGTSVTVSSESQSFPNVFPLVSCESPLSDKNLVAMGCLAR
VL: DIVMTQAAPSVPVTPGESVSISCRSSKSLLHSNGNTYLYWFLQRPGQSPQLLIYRMSNLASGVPDRFSGSGSGTAFTLRISRVEAEDVGVYYCMQHLEYPFTFGSGTKLEIKRADAAPTVSIFPPSSEQLTSGGASVVCFL
modifications: IgM constant regions
B1 was tested, and the “uptake and processing of latent 65 kDa heparanase” value [1] was “markedly decreased; also recorded: almost complete inhibition”, the “uptake of constitutively active heparanase (GS3)” value [2] was “inhibited profoundly” and the “inhibition of liver metastasis (CD45 staining)” value [3] was 4-5 fold. For the same molecule, the “lymphoma cell death (PI-positivity)” value [4] was “do not elicit lymphoma cell death”.
